Drawing on patent US8080523, this text covers fold selectivity for Kv1.3 over this channel and Kd for two molecules.

Where two headings read alike, the source gives them in different places.

For orientation: Kd means the concentration at which binding is half-saturated. A higher Kd goes with a looser complex.

The target of assay [1] is T1, Kv1.1 (Mus musculus (Mouse)), P16388.
T1 chain: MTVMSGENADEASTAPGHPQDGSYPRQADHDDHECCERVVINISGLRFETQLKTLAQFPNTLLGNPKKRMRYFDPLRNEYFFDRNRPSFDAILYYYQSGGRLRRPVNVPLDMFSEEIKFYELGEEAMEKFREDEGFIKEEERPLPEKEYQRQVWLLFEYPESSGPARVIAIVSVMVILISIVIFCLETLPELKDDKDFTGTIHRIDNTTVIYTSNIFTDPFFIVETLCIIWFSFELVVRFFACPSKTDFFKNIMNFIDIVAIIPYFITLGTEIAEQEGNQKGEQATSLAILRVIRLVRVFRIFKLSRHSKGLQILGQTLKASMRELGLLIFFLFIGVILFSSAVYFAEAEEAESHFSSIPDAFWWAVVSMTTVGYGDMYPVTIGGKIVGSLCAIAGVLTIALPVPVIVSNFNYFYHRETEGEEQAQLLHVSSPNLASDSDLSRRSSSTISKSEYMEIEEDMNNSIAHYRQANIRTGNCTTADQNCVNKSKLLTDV
Nature of the assay: patch-clamp, ratio of Kd values; reference margatoxin on Kv1.3. Background: In patch-clamp work, channel activity is measured electrically.

For assay [2], the target named is T2, Kv1.3 (cloned) (Mus musculus (Mouse)), P16390.
T2 chain: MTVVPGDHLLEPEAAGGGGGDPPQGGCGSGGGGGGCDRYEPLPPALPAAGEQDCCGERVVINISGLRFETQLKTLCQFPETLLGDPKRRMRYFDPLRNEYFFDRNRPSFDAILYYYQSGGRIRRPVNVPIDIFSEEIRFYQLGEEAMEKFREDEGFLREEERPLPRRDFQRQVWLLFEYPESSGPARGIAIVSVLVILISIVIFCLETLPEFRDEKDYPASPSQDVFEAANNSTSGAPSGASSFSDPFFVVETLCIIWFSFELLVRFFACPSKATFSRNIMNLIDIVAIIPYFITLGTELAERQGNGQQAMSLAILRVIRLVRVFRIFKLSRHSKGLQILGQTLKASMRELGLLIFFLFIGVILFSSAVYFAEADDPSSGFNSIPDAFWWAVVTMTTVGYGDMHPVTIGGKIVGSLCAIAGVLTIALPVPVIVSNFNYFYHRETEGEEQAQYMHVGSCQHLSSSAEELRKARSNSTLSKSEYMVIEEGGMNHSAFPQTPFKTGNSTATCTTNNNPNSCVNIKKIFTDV
Nature of the assay: patch-clamp, block of channel current.

Assay [3] deals with T1, Kv1.1 (Mus musculus (Mouse)), P16388. The assay is described as follows: patch-clamp, block of channel current.
The target in assay [4] is T2, Kv1.3 (cloned) (Mus musculus (Mouse)), ….

On to TIINVKCTSPKQCLPPCKAQFGQSAGAKCMNGKCKCYPH (modifications not checked) [Margatoxin, P40755 1-39], for which the fold selectivity for Kv1.3 over this channel in assay [1] was 9 fold. In addition, the Kd came to 0.11 nM in assay [2] and 10 nM in assay [3].
RSCIDTIPKSRCTAFQCKHSMKYRLSFCRKTCGTC (modifications not checked) [ShK toxin] registered a dissociation constant Kd in assay [4] of 0.01 nM.
